Laboratory results as given in patent US20220096653A1, “CONJUGATE COMPRISING LIGAND AND CEACAM5 ANTIBODY FAB FRAGMENT” (ASTELLAS PHARMA INC., priority 2019, published 2022).

Experiments:
[1] = molecular target: human cancer-specific MUC1 peptide; assay: ELISA binding activity of anti-human MUC1 antibody Fab^5 fragment conjugates (Example 6-1); conditions: each conjugate run in duplicate; Table 52; read-out: EC50
Protocol: (§1) Each anti-human MUC1 antibody Fab^5 fragment conjugate prepared by the method of Example 5 was subjected to ELISA to evaluate the binding activity thereof to human cancer-specific MUC1. In the present test, 20×PBS/Tween 20 Buffer (Thermo Fisher Scientific Inc., 28352) diluted 20-fold with distilled water was used as a wash liquid. In addition, for bovine serum albumin (BSA) used in the present test, 30% Bovine Serum Albumin solution (Sigma-Aldrich, Inc., A9576-50ML) was added in an appropriate proportion for use. A human cancer-specific MUC1 peptide (PTL 1) at 0.5 μmol/L was added to a Nunc MaxiSorp White 384 plate (Nunc, 460372) at 30 μL per well, and the plate was incubated overnight at 4° C. for immobilization. The MUC1 peptide was removed by reverse centrifugation, and then blocking was carried out by adding a PBS/Tween 20 buffer containing 5.0% BSA. Thereafter, the blocking solution was removed by reverse centrifugation, a solution of each anti-human MUC1 antibody Fab^5 fragment conjugate (Ex-No. 104, 108, or 112) described above at about 10000 ng/mL was diluted in 14 steps by 3-fold dilution using a PBS/Tween 20 buffer containing 1.0% BSA, and 30 μL was added per well and incubated at room temperature for 60 minutes. The plate was washed 3 times with a PBS/Tween 20 buffer, and Horseradish Peroxidase-labeled goat anti-human IgK antibody (Southern Biotechnology Associates, Inc.) diluted 10000-fold using a PBS/Tween 20 buffer containing 5.0% BSA was added at 30 μL per well and incubated at room temperature for 30 minutes. The plate was washed 3 times with a PBS/Tween 20 buffer, and ECL Prime Western Blotting DETECTION Reagent (GE Healthcare, RPN2232) as a substrate was added at 30 μL per well. The substrate was incubated at room temperature for 15 minutes, and then a signal value thereof was measured using an Envision counter (PerkinElmer, Inc.).
(§2) The test for each antibody was carried out in duplicate, and the EC50 value was calculated using a 4-parameter logistic curve model.

[2] = molecular target: human cancer-specific MUC1 peptide (Homo sapiens, UniProt P15941); assay: ELISA binding activity of anti-human MUC1 antibody Fab^5 fragment conjugates (Example 6-2); conditions: each conjugate run in duplicate; Table 54; read-out: EC50
human cancer-specific MUC1 peptide (Homo sapiens, UniProt P15941), sequence (P15941 136-155): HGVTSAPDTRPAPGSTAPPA
Protocol: as §1, with “101-113)” for “104, 108, or 112)”
as §2

[3] = design: species or system mice (BALB/c or BALB/c nu/nu); conditions: mouse, in vivo
Protocol: A Gd-labeled conjugate of the conjugate containing a peptide linker produced in one of the above Examples was administered from the tail vein of mice (BALB/c or BALB/c nu/nu) so that the protein mass was 0.02 mg (100 μL) per animal. After about 24 hours, the mice were sacrificed and the kidneys were removed, and the amount of Gd in the kidneys was measured using ICP-MS. The present test was carried out in 3 cases in each group, the mean value of the 3 cases was calculated, and the amount of Gd contained per kidney after administration was shown as a percentage (% of dose/tissue) of the total amount of Gd administered.
Based on the amount of Gd contained in the kidneys of the control conjugate, the proportion of decrease in the amount of Gd contained in the kidneys of each of the conjugates having a peptide linker was determined.

[4] = design: species or system mice (BALB/c nu/nu); conditions: mouse, in vivo
Protocol: (§3) A Gd-labeled conjugate of the conjugate containing a peptide linker produced in one of the above Examples was administered from the tail vein of the tumor-bearing mice so that the protein mass was 0.02 mg (100 μL) per animal. As the tumor-bearing mice used in the present Example, mice (BALB/c nu/nu) that were in a tumor-bearing state brought about by transplanting human breast cancer cell line MDA-MB-468 (ATCC(registered trademark); HTB-132) at 5.0×10^6 cells/mouse subcutaneously on the back before administration of the sample were used. 24 hours after administration of the sample, the mice were sacrificed, the kidneys and the tumor were removed, and the amounts of Gd in the kidneys and in the tumor were measured using ICP-MS. The present test was carried out in 3 cases in each group, and the mean value of the 3 cases was calculated. The amount of Gd contained per kidney after administration was shown as a percentage of the amount of Gd administered (% of dose/tissue), and the amount of Gd contained per g of tumor tissue was shown as a percentage of the total amount of Gd administered (% of dose/g).

[5] = test system: human breast cancer cell line MDA-MB-468; assay: Amount of tumor accumulation of Gd-labeled Fab^5 conjugates, MDA-MB-468 tumor-bearing mice (Example 8); conditions: control conjugate Ex-No. 108, mean for 2 runs, 24 hours
Protocol: as §3

- EC50 [1]: 0.07 nM
- EC50 [2]: 0.07 nM
B1: Ex-No 108 (conjugate)
heavy: QVQLVQSGAEVKKPGASVKVSCKASGYTFTNYGLSWVRQAPGQGLEWMGENHPGSGIIYHNEKFRGRVTLTADRSTSTAYMELSSLRSEDTAVYYCARSSGTRGFDYWGQGTLVTVSSASTKGPSVFPLAPSSKSTSGGTAALGCLVKDYFPEPVTVSWNSGALTSGVHTFPAVLQSSGLYSLSSVVTVPSSSLGTQTYICNVNHKPSNTKVDKKVEPKSCD
light: DVVMTQTPLSLSVTPGQPASISCRSSQSIVHSNGNTYLEWYLQKPGQSPQLLIYRVSNRFSGVPDRFSGSGSGTDFTLKISRVEAEDVGVYYCFQGSHGPWTFGQGTKLEIKRTVAAPSVFIFPPSDEQLKSGTASVVCLLNNFYPREAKVQWKVDNALQSGNSQESVTEQDSKDSTYSLSSTLTLSKADYEKHKVYACEVTHQGLSSPVTKSFNRGEC
modifications: non-natural residues
- Renal residual amount (normal mice) Mean [3]: 33.00 % of dose/tissue
- Renal residual amount Mean [4]: 34.67 % of dose/tissue
- Amount of tumor accumulation Mean [5]: 0.92 % of dose/g
